Holding throughout (assay): SPR
In general terms: SPR reads the build-up and loss of mass on a sensor chip optically.

The target of experiment [1] is IgG1 (pH-dependent anti-latent myostatin antibody with wild-type human IgG1 constant region) (human).
Experiment [2] concerns the target V2 (human IgG1 Fc variant G236N/H268D of an anti-latent myostatin antibody) (human).
For experiment [3], the target named is V3 (human IgG1 Fc variant G236N/H268D/A330K of the pH-dependent anti-latent myostatin antibody) (human).
Experiment [4] deals with V3-pI(A)-N434A (human IgG1 Fc variant G236N/H268D/Q311R/A330K/D413K/N434A of the pH-dependent anti-l (human)).
For experiment [5], the target named is V3-N434A (human IgG1 Fc variant G236N/H268D/A330K/N434A of the pH-dependent anti-latent myostatin antibody) (human).
Experiment [6] concerns the target V1 (human IgG1 Fc variant G236N of an anti-latent myostatin antibody) (human).

pKd: −log10 of the molar value.

Take “cynomolgus FcγRIIa2, extracellular region (receptor)”: the relative binding per units (IgG1 = 1) (relative to IgG1) in experiment [1] is 1; in experiment [2], 1.89; in experiment [3], 2.56; in experiment [4], 2.52.
On the same counts, the results for “cynomolgus FcγRIIa3, extracellular region (receptor)” are 1, 2.36, 2.77 and 2.76.
Consider “cynomolgus FcγRIIIa(R), extracellular region (from UniProt Q8SPW2 17-208) (receptor)”, for which, in experiment [1], the relative binding per units (IgG1 = 1) (relative to IgG1) stood at 1.
Regarding “cynomolgus FcγRIIa1, extracellular region (receptor)”, the relative binding per units (IgG1 = 1) (relative to IgG1) was found to be 1 in experiment [1], 1.45 in experiment [2], 2 in experiment [3] and 1.97 in experiment [4].
As to “cynomolgus FcγRIa, extracellular region (receptor)”, the relative binding per units (IgG1 = 1) (relative to IgG1) in experiment [1] was 1; in experiment [4], 0.71.
For orientation: pKd means the negative decadic logarithm of the Kd, by convention in mol/L. A high value points to a small Kd. With “cynomolgus FcRn (from UniProt Q8SPV9 24-365) (receptor)”, the pKd was 5.82 in experiment [1], 6.28 in experiment [5] and 6.45 in experiment [4].
The substance “cynomolgus FcγRIIIa(S), extracellular region (from UniProt Q8SPW2 17-208) (receptor)” returned a relative binding per units (IgG1 = 1) (relative to IgG1) in experiment [1] of 1.
Regarding “cynomolgus FcγRIIb, extracellular region (receptor)”, the results for the relative binding per units (IgG1 = 1) (relative to IgG1) in experiment [1] and in experiment [4] were 1 and 2.83, respectively.
On to “human FcγRIa, extracellular region (from UniProt P12314 16-292) (receptor)”, for which, in experiment [6], the relative binding per units (IgG1 = 1) (relative to IgG1) was 0.16.
For the substance “human FcγRIIIa(F), extracellular region (from UniProt P08637 17-208) (receptor)”, in experiment [1], the relative binding per units (IgG1 = 1) (relative to IgG1) is 1.
Same read-out and setting: under “human FcγRIIIa(V), extracellular region (from UniProt P08637 17-208) (receptor)” stands 1.

Values taken from article PMC9067469.
